# Assay: yeast display, Sf9 membrane polyspecificity reagent, FACS + sequencing; frameworks hold sequencing errors
# Method in brief: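 Sorting gates, low and high (top ~1%), were placed on anti-HA fluorescence to track expression and on streptavidin fluorescence to track reagent binding. A clone's polyreactivity label is taken from the gate it came out of. The reagent was 10% biotinylated, detergent-solubilized Sf9 membrane, applied for 1 hour at 4 °C to galactose-induced yeast display cells.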
row,Sequence,polyreactivity (PSR sort gate)
1,QVQLQESGGGLVLAGGSLRLSCSASGNISVYGSMGWYRQAPGKEREFVATIDPGTNTNYADSVKDRFTISRDNAKNTVYLQMTSLKPEDTAVYYCAVEAGSDGPYRYWGQGTQVTVSS,low polyreactivity
2,QVQLQESGGGLVQACGIQRLSCAATGSISEGQDMGWYSRSPGKERECVAGIAPGATTYYADSLKGRFTISRDNAKKTVYLQMTSLKPEDTAVYYCAARSVTETDHDYWGQGSQVTVSS,low polyreactivity
3,QVQLQESGGGLVQACGSLRLSCAASGNISPQLYMGWYRQAPGKEREFVADIAEGSTTYYAESVKGRFTISRDDAKNTVYLHMISLKSEDTAVYYCAARYENAESFYYWGQGSQVTVSS,high polyreactivity
4,QVQLQESGGGLVQACGSQRLSCAASGSICEGQDMGWYRRAPGKEREFVAGIAPGATTYYADSVKGRFTISRDNAKNTVYLQMNSLKPEDTAVYYCAARSVTETDHDSWGQGTQVTVSS,low polyreactivity
5,QVQLQESGGGLVQAGGCLRLSCAASGTSFDPDYMGWYHQAPGKERELVASISLGRITYNADSVKGRFTINRDNAKNTVYLQMNSLKPEDTAVYYCAVRVETIYYYSYWGQGTQVTVSS,high polyreactivity
6,QVQLQESGGGLVQAGGCLSCTASGTIFGQGDMGWYRQAPGKERELVATINDGASTYYADSVKGRFTISRDKAKNTVYLQKNSLKPDDTAGYYCAVFTDITTYFGYWGQGTQLTVSS,low polyreactivity
7,QVQLQESGGGLVQAGGDLRLTCAASGNIFRDYIMGWYRQAPGKEREFVAGIDRGANTNYADSVKGRFTISRDNAKNTVYLQMNSLKPEDTAVYYCAVHTAIVPDFIYWGQGTQVTVSS,low polyreactivity
8,QVQLQESGGGLVQAGGILRLSCAASGSIFHLHIMCWYRQEPGKERESVAAISNGTSTYYADSVKGRFTICRDNAKNTVYLQMNSPKPDDTAVYYCAALFLVSKHHHYWGEGTQVTVSS,low polyreactivity
9,QVQLQESGGGLVQAGGSLCLSCAASGTIFFDGDMGWYRQAPGKEREFVAAINPGGSAYYADSVKGRLPLAAITHTVYLQMISLKPEDTAVYYCAAKLFDVYGYYYWGQGTHVTVSS,low polyreactivity
10,QVQLQESGGGLVQAGGSLLSCAASGTISWDDEMGWYLQAPGNERELVAGIAGGGNTNYADSVKGRFTISRDNAKNTVYLQMNSLDTAVYYCAVVGFGRGTHIYWGQGTQVTVSS,high polyreactivity
11,QVQLQESGGGLVQAGGSLLSCAASGTISWVDEMGWYLQAPGNERELVAGIAGGGNTNYADSVKGRFTISRDNAKNTVYLQMNSLDTAVYYCAVVGFGRGTHIYWGQGTQVTVSS,high polyreactivity
12,QVQLQESGGGLVQAGGSLLSCAASGTISWVDEMGWYRQAPGNERELVAGIAGGGNTNYADSVKGRFTISRDNAKNTVYLQMNSLDTAVYYCAVVGFGGGTHIYWGQGTQVTVSS,high polyreactivity
13,QVQLQESGGGLVQAGGSLLSCAASGTISYYREMGWYRQAPGKERELVAGIGVGTITYYADSVKGRFTISRDNAKNTVYLQMNSLKPEATAVYYCAAHIDGNDSHAYWGQGTQVTVSS,low polyreactivity
14,QVQLQESGGGLVQAGGSLLSCAASGTISYYREMGWYRQAPGKERELVAGIGVGTITYYADSVKGRFTISRHNAINTVYMQMNSLKPEDTAVYYCAAHIDGNDSHAYWGQGTQVTVSS,low polyreactivity
15,QVQLQESGGGLVQAGGSLRLGCAASGNISDAGYMGWYRQAPGKEREFVAAIAAGSNTNYADSVKGRFTISRDNAKNTVYLQMNSLKPEVTAVFYCAVACYARVQYEYWGQGTQVTVNS,low polyreactivity
16,QVQLQESGGGLVQAGGSLRLSCAASGIIFDNPNMGWYRQAPGKERELVATINSGATTNYADSVKGRFTISRDNAKNTVYLQMNSLIPEDTAVYYCAVDLSPTYFYYWGQGTQVTVSS,high polyreactivity
17,QVQLQESGGGLVQAGGSLRLSCAASGNFFDADIMGWYRQAPGKERELVASITDGGSTNYAVSVKGRFTISRGNTKNTVYLLMNCLKPEDTSVYYCAAIAYPDIPTYFDYNSDYFYWGQGTQVTVSS,high polyreactivity
18,QVQLQESGGGLVQAGGSLRLSCAASGNIFDADIMGWYRQAPGKERELVASITDGGSTNYADSVKGRFTISRDNAKNSVYLQMNSLLPEDTAVYYCAAIAYPDIPTYFDYDSDYFYWGQGTQVTVSS,high polyreactivity
19,QVQLQESGGGLVQAGGSLRLSCAASGNIYDADIMGWYRQAPGKERELVTSITDGGSTNYADSVKGRFTISRDNAKNTVYLQMNSLKPEDTAVYYSAAIAYPDIPTSFDYNSDYSYWGQGTQVTVSS,low polyreactivity
20,QVQLQESGGGLVQAGGSLRLSCAASGPISRRSNMGWYRQSPGKESELVTAITRGTNTNYADSVKGRFTISRDNAKYTEYLQMNSLNPEDTAVYYCADYGVLKPSRGDAVFNRYWGQGTQVTVSS,low polyreactivity
21,QVQLQESGGGLVQAGGSLRLSCAASGPISRRSTMGWYRQAPGKERELVTAITRGTNTNYADSVKGRFTISRDNAKNTEYLQMYCLKPEDTAVYYCAAYGVLKPSRGDAVFHRYWGQGTQVTVSS,low polyreactivity

row,Sequence,polyreactivity (PSR sort gate)
1,QVQLQESGGGLVQAGGSLRLSCAASGSIFHLHIMCWYRQAPGKERESVAAISYGTSTYYADSVKGRFTICRDNAKNTLYLQMNSPKPDDTAVYYCAALFLVSKHHHYWGEGTQVTVSS,low polyreactivity
2,QVQLQESGGGLVQAGGSLRLSCAASGSIFHLHIMCWYRQAPGKERESVAAISYGTSTYYADSVKGRFTICRDNAKNTVYLKMNSPKPDDTAVYYCAALFLVSKHHHYWGEGTQVTVSS,low polyreactivity
3,QVQLQESGGGLVQAGGSLRLSCAASGSIFHLHIMCWYSQAPGKERESVAAISYGTSTYFADSVKGRFTICRDNAKNTVYLQMNSPKPYDTAVYYCAALFLVSKHHHYWGEGTQVTVSS,low polyreactivity
4,QVQLQESGGGLVQAGGSLRLSCAASGSISELRPMGWYRQAPGKERELVAGISTGGSTNYADSVKGRFTISRDNAKNTVYLQMNSLKPEDTAVYYCAAASYGEGTYDYWGQGTQVTVRS,high polyreactivity
5,QVQLQESGGGLVQAGGSLRLSCAASGSISHYIFMGWYRQAPGKEREFVAGIGYGGTTNYADSVKGRFTISRDNAKNTVYLQMNSLKPEDTAMYYCAAREATEFYLYYWGQGTQVTVRS,low polyreactivity
6,QVQLQESGGGLVQAGGSLRLSCAASGSISSPQFMGWYRQAPGIERELVATIANGGITYYADGVKGRFTISRDNAKNTVYLQMNSLKPEDTAVYYCNARSQGWYNTFYYWGQGTQVTVSS,low polyreactivity
7,QVQLQESGGGLVQAGGSLRLSCAASGTIFRFRYMGWHRQAPGKERELVAGINGGTTTYYADSVIGRFTISRDNAIKTVYLQMNSLKPDDTAVYNCAAGASRLTYYDYWGQGTQVTVSS,low polyreactivity
8,QVQLQESGGGLVQAGGSLRLSCAASGTIFRPATKGWYRQAPGKECEFVASITIGTITNYADSVKGRFTISRDNAKNTVYLQMNSLKPEDTAVYYCAVYGTWEVDLYYWGQGTQVTVSS,high polyreactivity
9,QVQLQESGGGLVQAGGSLRLSCAASGTISDSGLMGWYRQAPGKERELVAGISSGGITNYADSVKGRFTISRDNAKNSVDLQMNSLKPEDTAVYWGRGTQVTVSS,low polyreactivity
10,QVQLQESGGGLVQAGGSLRLSCAASGTISPLPAMGWYRQAPGKEPEFVAGIDTGAITNYADSVKGRFTISRDNAKNTVYLQMNSLKPEDTAVYYCAVFPAAYDYYERYYTYWGQGTQVTVIS,low polyreactivity
11,QVQLQESGGGLVQAGGSLRLSCAASGTISTIEPMGWYRQAPGKERELVACIGAGTITNYADSVKGRFTISRDNDTVYLQMNSLKPEDTAVYYCNADGWYALYEWLAVSGYYWGQGTQVTVSS,low polyreactivity
12,QVQLQESGGGLVQAGGSLRLSCAASGYISLAQTIGWYRQAPGKEREFVASIALGSSTYYTDSVKGSFTISRDNAKTTVYLQMNSLKPEDTAVYYCAARVGASYAHDYWGQGTQVAVSS,low polyreactivity
13,QVQLQESGGGLVQAGGSLRLSCAASGYISSWYPMGSYRQAPGKEREFVATIAPGATTYYADSVKGRFTISRDYAKNTVYLQMNSLKPEDTAVYYCAAGPENNDFYSYGGQGTQVTVSS,low polyreactivity
14,QVQLQESGGGLVQAGGSLRLSCAASGYISSWYPMGWYRQAPGKEREFVATIAPGATPYYADSVKGRFTISRDYAKNTVYLQMNSLKPEDTAVYYCAAGPENNDFYSYWGQGTQVTVSS,low polyreactivity
15,QVQLQESGGGLVQAGGSLRLSCAASGYISSWYPMGWYRQAPGKEREFVATLAPGATTYYADSVKGRFTISRDYAKNTVYLQMIRLKPEDTAVYYFAAGPENNDFYSFWGQGSQVTVSS,low polyreactivity
16,QVQLQESGGGLVQAGGSLRLSCAASGYISYCVGMGWYRQAPGKEREFVASIAVGSNTYYADSVKGRFTISRYNAKISVYLQRNSLKPEDTAVYYCSVEDSWTYRFDYWGQGTQVTVSS,high polyreactivity
17,QVQLQESGGGLVQAGGSLRLSCAASGYISYFVGMGWYRQAPGKEREFVASIADGSNTYYADSVKGRFTISRDNAKNTVYLQRNSLKPEDTAVYYCAVEDSWTYRFDYWGQGTQVTVSS,high polyreactivity
18,QVQLQESGGGLVQAGGSLRLSCAASGYIYSWYPMGWYLQAPGKEREFVATIAPGATTYYADSVKGRFTISRDYAKNTVYLQMNSLKTEDTAVYYCAAGAENNDFYSYWGHGTQVTVSS,low polyreactivity
19,QVQLQESGGGLVQAGGSLRLSCAESGTIFGWDRMGRYRQAPGKERELVATIDNRGSTNYADSVKGRFTISRDNAKNTVYPQMNSLKPDDTAVYYCAVVGPTPQYHLYWGQGTQVTVSS,high polyreactivity
20,QVQLQESGGGLVQAGGSLRLSCAESGYISHAVEMGWYRQAPGKVHELVASISNGGSTNYADSVKGRFTISRDNAKNTVYLQMNSLKSEDTAVYYCAAWTGQVDIHSYWGQGTQVSVSS,low polyreactivity

# Reference: the nanobody polyreactivity screen of Harvey et al. (2022)
